Drawing on PMC8908738, this text covers Kd for two molecules.

The target in data set [1] is T1, thrombin (UniProt P00734;P00734 328-363;364-622). Nature of the data set: competitive hybridization, CD of DNA origami chiral plasmonic probe; 170 nM thrombin, n=7-11 bp at aptamer 5' end; R2=0.94 (below the authors' 0.95 validity threshold); Binding buffer, pH and temperature not given in the material shown; origami assembled in TE with 20 mM MgCl2 and 5 mM NaCl; thrombin 170 nM.

The target in data set [2] is T1, thrombin. Nature of the data set: competitive hybridization, CD of DNA origami chiral plasmonic probe; 170 nM thrombin, n=7-11 bp at aptamer 3' end; R2=0.97; Binding buffer, pH and temperature not given in the material shown; origami assembled in TE with 20 mM MgCl2 and 5 mM NaCl; thrombin 170 nM.

B1: thrombin DNA aptamer, 5' bridge lock (complement hybridizes at aptamer 5' end) (structured_DNA)
DNA: CTAGCGAGCGAACTTTGGTTGGTGTGGTTGG
As a reminder, the Kd is the free concentration of one partner at which half of the binding sites on the other are occupied at equilibrium, for simple one-to-one binding. Higher therefore signals a looser complex. In turn, B1 displayed a Kd in the data set with thrombin [1] of 235 nM.

B2: thrombin DNA aptamer, 3' bridge lock (complement hybridizes at aptamer 3' end) (structured_DNA)
DNA: GGTTGGTGTGGTTGGTTTAGAGTGAGCAGAG
Turning to B2, the Kd in the data set with thrombin [2] was determined as 46.7 nM.
